Target: T1, human CCR5 chemokine receptor (Homo sapiens, UniProt P51681)
T1 construct: host or cells: Chinese Hamster Ovary (CHO) cells; membranes prepared from the cell pellet
Experiment: CC-Chemokine Receptor-5 Binding by Scintillation Proximity Assay (CCR5 SPA), displacement of 125I-MIP1α
Details: standards plate, 14-point concentration-response curve in triplicate, starting concentration 1 μM
Protocol: CC-Chemokine Receptor-5 Binding by Scintillation Proximity Assay (CCR5 SPA)
Scintillation Proximity Assay for the Human CC-Chemokine Receptor, CCR-5
This protocol describes a high-throughput screen using SPA binding to identify compounds that inhibit binding of ^125I-MIP1α to the human CCR5 chemokine receptor.
Human CCR5 receptors were expressed in Chinese Hamster Ovary (CHO) cells, registration # 12025. Cells were grown in suspension and a 50 to 80 ml CCR5 cell pellet was prepared. […]
The saturation curve binding experiment is performed by adding varying amounts of [^125I]MIP1α (0-8.5 nM to membranes and beads in concentrations chosen from the optimal protein/bead ratio. The data is analyzed using a non-linear curve-fitting program. The Kd and Bmax are derived from the curve. […]

T1 sequence (P51681 whole entry): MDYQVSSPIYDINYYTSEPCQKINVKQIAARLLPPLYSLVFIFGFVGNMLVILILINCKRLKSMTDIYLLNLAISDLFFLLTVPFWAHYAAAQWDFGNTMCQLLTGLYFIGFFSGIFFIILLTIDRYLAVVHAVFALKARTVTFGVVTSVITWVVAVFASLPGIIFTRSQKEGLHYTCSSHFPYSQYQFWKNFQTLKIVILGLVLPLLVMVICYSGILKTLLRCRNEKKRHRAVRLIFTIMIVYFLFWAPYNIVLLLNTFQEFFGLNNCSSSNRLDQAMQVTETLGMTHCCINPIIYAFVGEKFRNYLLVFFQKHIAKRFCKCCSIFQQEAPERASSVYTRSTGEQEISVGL

## MIP1α: standard compound of the CCR5 SPA; natural chemokine ligand of CCR5
  average historical pKi obtained with MIP1α: 7.6
